# In patent US20200270325A1 (Merck Sharp & Dohme, published 2020):
# Numbered stars: 1 amine (or outer) side, 2 acyl side, 3 side chain; on linkers, the order of the positions; unused ones are H or OH. Square brackets hold non-standard residues; d marks the D form. Side chains are listed from the residue outwards. Ends that are not written are not given here. * marks the point of attachment. Phe(4-CH2NH2) = NCc1ccc(C[C@H](N)C(=O)O)cc1; C18 diacid = O=C(O)CCCCCCCCCCCCCCCCC(=O)*; αMeW = C[C@](N)(Cc1c[nH]c2ccccc12)C(=O)O; γGlu = O=C(O)[C@H](CCC(=O)[*:2])N[*:1]; Met(O2) = CS(=O)(=O)CC[C@H](N)C(=O)O; αMeD = C[C@](N)(CC(=O)O)C(=O)O; αMeS = C[C@](N)(CO)C(=O)O; AEEA = NCCOCCOCC(=O)O; Aib = CC(C)(N)C(=O)O
# B1: TP636 (peptide)
# peptide: H[Aib]QGTFTSDYSKYLDARAA[Phe(4-CH2NH2)]([AEEA-AEEA-γGlu-C18 diacid])DFVQWL[Met(O2)][αMeD]T-NH2
# modifications: N-terminus assumed
# SMILES: CC(C)C[C@H](NC(=O)[C@H](Cc1ccc(O)cc1)NC(=O)[C@H](CCCCN)NC(=O)[C@H](CO)NC(=O)[C@H](Cc1ccc(O)cc1)NC(=O)[C@H](CC(=O)O)NC(=O)[C@H](CO)NC(=O)[C@@H](NC(=O)[C@H](Cc1ccccc1)NC(=O)[C@@H](NC(=O)CNC(=O)[C@H](CCC(N)=O)NC(=O)C(C)(C)NC(=O)[C@@H](N)Cc1c[nH]cn1)[C@@H](C)O)[C@@H](C)O)C(=O)N[C@@H](CC(=O)O)C(=O)N[C@@H](C)C(=O)N[C@@H](CCCNC(=N)N)C(=O)N[C@@H](C)C(=O)N[C@@H](C)C(=O)N[C@@H](Cc1ccc(CNC(=O)COCCOCCNC(=O)COCCOCCNC(=O)CC[C@H](NC(=O)CCCCCCCCCCCCCCCCC(=O)O)C(=O)O)cc1)C(=O)N[C@@H](CC(=O)O)C(=O)N[C@@H](Cc1ccccc1)C(=O)N[C@H](C(=O)N[C@@H](CCC(N)=O)C(=O)N[C@@H](Cc1c[nH]c2ccccc12)C(=O)N[C@@H](CC(C)C)C(=O)N[C@@H](CCS(C)(=O)=O)C(=O)N[C@@](C)(CC(=O)O)C(=O)N[C@H](C(N)=O)[C@@H](C)O)C(C)C
# B2: TP637 (peptide)
# peptide: H[Aib]QGTFTSDYSKYLDARAAQDFVK([AEEA-γGlu-C18 diacid])WL[Met(O2)]DT-NH2
# modifications: N-terminus assumed
# SMILES: CC(C)C[C@H](NC(=O)[C@H](Cc1ccc(O)cc1)NC(=O)[C@H](CCCCN)NC(=O)[C@H](CO)NC(=O)[C@H](Cc1ccc(O)cc1)NC(=O)[C@H](CC(=O)O)NC(=O)[C@H](CO)NC(=O)[C@@H](NC(=O)[C@H](Cc1ccccc1)NC(=O)[C@@H](NC(=O)CNC(=O)[C@H](CCC(N)=O)NC(=O)C(C)(C)NC(=O)[C@@H](N)Cc1c[nH]cn1)[C@@H](C)O)[C@@H](C)O)C(=O)N[C@@H](CC(=O)O)C(=O)N[C@@H](C)C(=O)N[C@@H](CCCNC(=N)N)C(=O)N[C@@H](C)C(=O)N[C@@H](C)C(=O)N[C@@H](CCC(N)=O)C(=O)N[C@@H](CC(=O)O)C(=O)N[C@@H](Cc1ccccc1)C(=O)N[C@H](C(=O)N[C@@H](CCCCNC(=O)COCCOCCNC(=O)CC[C@H](NC(=O)CCCCCCCCCCCCCCCCC(=O)O)C(=O)O)C(=O)N[C@@H](Cc1c[nH]c2ccccc12)C(=O)N[C@@H](CC(C)C)C(=O)N[C@@H](CCS(C)(=O)=O)C(=O)N[C@@H](CC(=O)O)C(=O)N[C@H](C(N)=O)[C@@H](C)O)C(C)C
# B3: TP635 (peptide)
# peptide: H[Aib]QGTFTSDYSKYLDARAA[Phe(4-CH2NH2)]([AEEA-γGlu-C18 diacid])DFVQWLLDT-NH2
# modifications: N-terminus assumed
# SMILES: CC(C)C[C@H](NC(=O)[C@H](Cc1ccc(O)cc1)NC(=O)[C@H](CCCCN)NC(=O)[C@H](CO)NC(=O)[C@H](Cc1ccc(O)cc1)NC(=O)[C@H](CC(=O)O)NC(=O)[C@H](CO)NC(=O)[C@@H](NC(=O)[C@H](Cc1ccccc1)NC(=O)[C@@H](NC(=O)CNC(=O)[C@H](CCC(N)=O)NC(=O)C(C)(C)NC(=O)[C@@H](N)Cc1c[nH]cn1)[C@@H](C)O)[C@@H](C)O)C(=O)N[C@@H](CC(=O)O)C(=O)N[C@@H](C)C(=O)N[C@@H](CCCNC(=N)N)C(=O)N[C@@H](C)C(=O)N[C@@H](C)C(=O)N[C@@H](Cc1ccc(CNC(=O)COCCOCCNC(=O)CC[C@H](NC(=O)CCCCCCCCCCCCCCCCC(=O)O)C(=O)O)cc1)C(=O)N[C@@H](CC(=O)O)C(=O)N[C@@H](Cc1ccccc1)C(=O)N[C@H](C(=O)N[C@@H](CCC(N)=O)C(=O)N[C@@H](Cc1c[nH]c2ccccc12)C(=O)N[C@@H](CC(C)C)C(=O)N[C@@H](CC(C)C)C(=O)N[C@@H](CC(=O)O)C(=O)N[C@H](C(N)=O)[C@@H](C)O)C(C)C
# B4: TP633 (peptide)
# peptide: H[Aib]QGTFTSDYSKYLDARAAQ[Phe(4-CH2NH2)]([AEEA-γGlu-C18 diacid])FVQWLLDT-NH2
# modifications: N-terminus assumed
# SMILES: CC(C)C[C@H](NC(=O)[C@H](Cc1ccc(O)cc1)NC(=O)[C@H](CCCCN)NC(=O)[C@H](CO)NC(=O)[C@H](Cc1ccc(O)cc1)NC(=O)[C@H](CC(=O)O)NC(=O)[C@H](CO)NC(=O)[C@@H](NC(=O)[C@H](Cc1ccccc1)NC(=O)[C@@H](NC(=O)CNC(=O)[C@H](CCC(N)=O)NC(=O)C(C)(C)NC(=O)[C@@H](N)Cc1c[nH]cn1)[C@@H](C)O)[C@@H](C)O)C(=O)N[C@@H](CC(=O)O)C(=O)N[C@@H](C)C(=O)N[C@@H](CCCNC(=N)N)C(=O)N[C@@H](C)C(=O)N[C@@H](C)C(=O)N[C@@H](CCC(N)=O)C(=O)N[C@@H](Cc1ccc(CNC(=O)COCCOCCNC(=O)CC[C@H](NC(=O)CCCCCCCCCCCCCCCCC(=O)O)C(=O)O)cc1)C(=O)N[C@@H](Cc1ccccc1)C(=O)N[C@H](C(=O)N[C@@H](CCC(N)=O)C(=O)N[C@@H](Cc1c[nH]c2ccccc12)C(=O)N[C@@H](CC(C)C)C(=O)N[C@@H](CC(C)C)C(=O)N[C@@H](CC(=O)O)C(=O)N[C@H](C(N)=O)[C@@H](C)O)C(C)C
# B5: TP634 (peptide)
# peptide: H[Aib]QGTFTSDYSKYLDARAAQ[Phe(4-CH2NH2)]([AEEA-AEEA-γGlu-C18 diacid])FVQWL[Met(O2)][αMeD]T-NH2
# modifications: N-terminus assumed
# SMILES: CC(C)C[C@H](NC(=O)[C@H](Cc1ccc(O)cc1)NC(=O)[C@H](CCCCN)NC(=O)[C@H](CO)NC(=O)[C@H](Cc1ccc(O)cc1)NC(=O)[C@H](CC(=O)O)NC(=O)[C@H](CO)NC(=O)[C@@H](NC(=O)[C@H](Cc1ccccc1)NC(=O)[C@@H](NC(=O)CNC(=O)[C@H](CCC(N)=O)NC(=O)C(C)(C)NC(=O)[C@@H](N)Cc1c[nH]cn1)[C@@H](C)O)[C@@H](C)O)C(=O)N[C@@H](CC(=O)O)C(=O)N[C@@H](C)C(=O)N[C@@H](CCCNC(=N)N)C(=O)N[C@@H](C)C(=O)N[C@@H](C)C(=O)N[C@@H](CCC(N)=O)C(=O)N[C@@H](Cc1ccc(CNC(=O)COCCOCCNC(=O)COCCOCCNC(=O)CC[C@H](NC(=O)CCCCCCCCCCCCCCCCC(=O)O)C(=O)O)cc1)C(=O)N[C@@H](Cc1ccccc1)C(=O)N[C@H](C(=O)N[C@@H](CCC(N)=O)C(=O)N[C@@H](Cc1c[nH]c2ccccc12)C(=O)N[C@@H](CC(C)C)C(=O)N[C@@H](CCS(C)(=O)=O)C(=O)N[C@@](C)(CC(=O)O)C(=O)N[C@H](C(N)=O)[C@@H](C)O)C(C)C
# B6: TP631 (peptide)
# peptide: H[Aib]QGTFTSDYSKYLDARAAK([AEEA-AEEA-γGlu-C18 diacid])DFVQ[αMeW]L[Met(O2)]DT-NH2
# modifications: N-terminus assumed
# SMILES: CC(C)C[C@H](NC(=O)[C@H](Cc1ccc(O)cc1)NC(=O)[C@H](CCCCN)NC(=O)[C@H](CO)NC(=O)[C@H](Cc1ccc(O)cc1)NC(=O)[C@H](CC(=O)O)NC(=O)[C@H](CO)NC(=O)[C@@H](NC(=O)[C@H](Cc1ccccc1)NC(=O)[C@@H](NC(=O)CNC(=O)[C@H](CCC(N)=O)NC(=O)C(C)(C)NC(=O)[C@@H](N)Cc1c[nH]cn1)[C@@H](C)O)[C@@H](C)O)C(=O)N[C@@H](CC(=O)O)C(=O)N[C@@H](C)C(=O)N[C@@H](CCCNC(=N)N)C(=O)N[C@@H](C)C(=O)N[C@@H](C)C(=O)N[C@@H](CCCCNC(=O)COCCOCCNC(=O)COCCOCCNC(=O)CC[C@H](NC(=O)CCCCCCCCCCCCCCCCC(=O)O)C(=O)O)C(=O)N[C@@H](CC(=O)O)C(=O)N[C@@H](Cc1ccccc1)C(=O)N[C@H](C(=O)N[C@@H](CCC(N)=O)C(=O)N[C@@](C)(Cc1c[nH]c2ccccc12)C(=O)N[C@@H](CC(C)C)C(=O)N[C@@H](CCS(C)(=O)=O)C(=O)N[C@@H](CC(=O)O)C(=O)N[C@H](C(N)=O)[C@@H](C)O)C(C)C
# B7: TP632 (peptide)
# peptide: H[Aib]QGTFTSDYSKYLDARAAKDFVQ[αMeW]L[Met(O2)][αMeD]T-NH2
# modifications: not fully specified (residue 20); printed as HUQGTFTSDYSKYLDARAAK(PEG2PEG2γEC18-OH)DFVQαMWL2αMDT-NH2
# What was measured:
# [1] = molecular target: human Glucagon receptor (GCGR) (human, UniProt P47871 26-477); assay: cell-based or functional assay
# [2] = molecular target: human GLP-1 receptor (GLP1R) (human, UniProt P43220 24-463); assay: cell-based or functional assay
# Sequence of human Glucagon receptor (GCGR) (P47871 26-477): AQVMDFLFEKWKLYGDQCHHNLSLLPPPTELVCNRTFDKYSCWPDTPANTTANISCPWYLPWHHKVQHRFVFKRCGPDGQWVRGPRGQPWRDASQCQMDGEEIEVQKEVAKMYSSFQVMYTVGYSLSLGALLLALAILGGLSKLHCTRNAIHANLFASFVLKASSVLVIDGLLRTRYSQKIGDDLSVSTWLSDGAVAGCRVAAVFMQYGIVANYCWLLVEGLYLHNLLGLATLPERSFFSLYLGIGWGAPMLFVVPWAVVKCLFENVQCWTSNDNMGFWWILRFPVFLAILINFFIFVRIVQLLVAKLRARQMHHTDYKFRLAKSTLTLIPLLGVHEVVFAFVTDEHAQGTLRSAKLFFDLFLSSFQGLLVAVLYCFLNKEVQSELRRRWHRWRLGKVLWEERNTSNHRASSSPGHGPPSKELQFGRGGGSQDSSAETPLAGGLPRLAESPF
Binder,GCGR EC50 human [1],GLP1R EC50 human [2]
B1,0.11 nM,0.52 nM
B2,0.94 nM,0.53 nM
B3,0.46 nM,2.13 nM
H[αMeS]QGTFTSDYSKYLD[Aib]RAAK([AEEA-AEEA-γGlu-C20‑OH])DFVQWL[Met(O2)]DT-NH2 [TP593],–,4.95 nM
H[αMeS]QGTFTSDYSKYLD[Aib]RAAK([AEEA-AEEA-γGlu-C20‑OH])DFVQWL[Met(O2)]DT-NH2 [TP592],–,2.42 nM
B4,0.12 nM,0.19 nM
B5,0.77 nM,0.49 nM
B6,1.65 nM,1.32 nM
B7,5.9 nM,6.6 nM
H[dS]QGTFTSDYSKYLD[Aib]RAAK([AEEA-AEEA-γGlu-C20‑OH])DFVQWL[Met(O2)]DT-NH2 [TP578],0.604 nM,4.95 nM
H[Aib]QGTFTSDYSKYLDARAAK([AEEA-AEEA-γGlu-C20‑OH])DFVQWL[Met(O2)][αMeD]T-NH2 [TP565],5.42 nM,2.26 nM
H[Aib]QGTFTSD[Phe(4-CH2NH2)]([AEEA-AEEA-γGlu-C20‑OH])SKYLDARAAQDFVQWL[Met(O2)]DT-NH2 [TP580],1.09 nM,0.46 nM
